Results from PMC3814156 (Molecular Biology of the Cell, 2013).

Biological target: ezrin FERM domain (residues 1–298), untagged (UniProt P15311 1-298)
Test: pull-down

Chain of ezrin FERM domain (residues 1–298), untagged (P15311 1-298): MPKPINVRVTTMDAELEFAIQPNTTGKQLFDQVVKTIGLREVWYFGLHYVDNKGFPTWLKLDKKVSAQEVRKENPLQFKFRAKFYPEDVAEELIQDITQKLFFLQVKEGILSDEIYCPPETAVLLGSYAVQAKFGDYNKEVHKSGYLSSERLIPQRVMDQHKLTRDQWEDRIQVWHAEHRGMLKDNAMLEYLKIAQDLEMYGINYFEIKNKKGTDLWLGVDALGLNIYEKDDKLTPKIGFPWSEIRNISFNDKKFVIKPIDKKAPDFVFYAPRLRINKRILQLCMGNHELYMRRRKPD

B1: SUMO-tagged EBP50 (natural protein, human, UniProt O14745 1-358, looked up)
chain: MSADAAAGAPLPRLCCLEKGPNGYGFHLHGEKGKLGQYIRLVEPGSPAEKAGLLAGDRLVEVNGENVEKETHQQVVSRIRAALNAVRLLVVDPETDEQLQKLGVQVREELLRAQEAPGQAEPPAAAEVQGAGNENEPREADKSHPEQRELRPRLCTMKKGPSGYGFNLHSDKSKPGQFIRSVDPDSPAEASGLRAQDRIVEVNGVCMEGKQHGDVVSAIRAGGDETKLLVVDRETDEFFKKCRVIPSQEHLNGPLPVPFTNGEIQKENSREALAEAALESPRPALVRSASSDTSEELNSQDSPPKQDSTAPSSTSSSDPILDFNISLAMAKERAHQKRSSKRAPQMDWSKKNELFSNL
half-life of dissociation from ezrin FERM beads: ~10 min

B2: SUMO-tagged E3KARP (natural protein, human, UniProt Q15599 1-337, looked up)
chain: MAAPEPLRPRLCRLVRGEQGYGFHLHGEKGRRGQFIRRVEPGSPAEAAALRAGDRLVEVNGVNVEGETHHQVVQRIKAVEGQTRLLVVDQETDEELRRRQLTCTEEMAQRGLPPAHDPWEPKPDWAHTGSHSSEAGKKDVSGPLRELRPRLCHLRKGPQGYGFNLHSDKSRPGQYIRSVDPGSPAARSGLRAQDRLIEVNGQNVEGLRHAEVVASIKAREDEARLLVVDPETDEHFKRLRVTPTEEHVEGPLPSPVTNGTSPAQLNGGSACSSRSDLPGSDKDTEDGSAWKQDPFQESGLHLSPTAAEAKEKARAMRVNKRAPQMDWNRKREIFSNF
half-life of dissociation from ezrin FERM beads: ~16 min
